# According to patent publication US20250215095:
# Columns and labels:
# [1] = test system: internally quenched peptide probe with CM LSGKSPWGL (SEQ ID NO: 178)
# [2] = test system: internally quenched peptide probe with CM LSGRSPWGL (SEQ ID NO: 177)
# [3] = test system: internally quenched peptide probe with CM LSGRSPAGL (SEQ ID NO: 694)
# [4] = test system: internally quenched peptide probe with CM PWGLSGRA (SEQ ID NO: 693)
# [5] = test system: internally quenched peptide probe with CM PWGLSGAS (SEQ ID NO: 692)
# [6] = test system: internally quenched peptide probe with CM PWGLSGR (SEQ ID NO: 163)
# [7] = test system: internally quenched peptide probe with CM RSPWGL (SEQ ID NO: 90)
# [8] = test system: internally quenched peptide probe with CM PWGLSARS (SEQ ID NO: 691)
# [9] = test system: internally quenched peptide probe with CM PWGLSGKS (SEQ ID NO: 150)
# [10] = test system: internally quenched peptide probe with CM PWALSGRS (SEQ ID NO: 688)
# [11] = test system: internally quenched peptide probe with CM PWGLRS (SEQ ID NO: 48)
# [12] = test system: internally quenched peptide probe with CM PWGASGRS (SEQ ID NO: 689)
# [13] = test system: internally quenched peptide probe with CM PWGLSG (SEQ ID NO: 684)
# [14] = test system: internally quenched peptide probe with CM PWGLSGRS (SEQ ID NO: 12)
# [15] = test system: internally quenched peptide probe with CM AWGLSGRS (SEQ ID NO: 686)
# [16] = test system: internally quenched peptide probe with CM PWGLAGRS (SEQ ID NO: 690)
# [17] = test system: internally quenched peptide probe with CM PAGLSGRS (SEQ ID NO: 687)
# [18] = test system: internally quenched peptide probe with CM WGLSGRS (SEQ ID NO: 685)
# matrix metalloprotease 9 (MMP9), sequence (chain, as listed by the source): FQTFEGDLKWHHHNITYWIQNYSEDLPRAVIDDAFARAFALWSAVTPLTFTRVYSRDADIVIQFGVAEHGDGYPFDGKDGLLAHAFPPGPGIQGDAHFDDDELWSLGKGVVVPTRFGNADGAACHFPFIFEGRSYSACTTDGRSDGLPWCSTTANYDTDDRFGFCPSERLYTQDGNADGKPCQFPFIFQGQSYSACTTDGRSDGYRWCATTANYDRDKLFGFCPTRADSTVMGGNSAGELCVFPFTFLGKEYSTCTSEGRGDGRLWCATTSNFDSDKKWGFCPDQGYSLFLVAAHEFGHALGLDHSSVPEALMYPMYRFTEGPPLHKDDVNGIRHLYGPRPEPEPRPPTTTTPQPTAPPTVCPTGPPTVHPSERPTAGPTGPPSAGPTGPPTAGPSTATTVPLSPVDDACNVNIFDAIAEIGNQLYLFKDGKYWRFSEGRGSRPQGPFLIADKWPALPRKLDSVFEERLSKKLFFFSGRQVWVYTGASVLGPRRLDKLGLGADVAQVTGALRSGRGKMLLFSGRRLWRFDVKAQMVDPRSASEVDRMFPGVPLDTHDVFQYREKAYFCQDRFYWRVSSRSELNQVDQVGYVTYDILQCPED
substance,measurement,setting,value
matrix metalloprotease 9 (MMP9),Probe Cleavage (pM/s),[1],630 pM/s
same,Probe Cleavage (pM/s),[2],1070 pM/s
same,Probe Cleavage (pM/s),[3],1630 pM/s
same,Probe Cleavage (pM/s),[4],17500 pM/s
same,Probe Cleavage (pM/s),[5],16400 pM/s
same,Probe Cleavage (pM/s),[6],17200 pM/s
same,Probe Cleavage (kcat/KM (M^-1 s^-1)),[7],870000 M⁻¹ s⁻¹
same,Probe Cleavage (pM/s),[7],25500 pM/s
same,Probe Cleavage (pM/s),[8],17500 pM/s
same,Probe Cleavage (kcat/KM (M^-1 s^-1)),[9],130000 M⁻¹ s⁻¹
same,Probe Cleavage (pM/s),[9],5360 pM/s
same,Probe Cleavage (pM/s),[10],12800 pM/s
same,Probe Cleavage (kcat/KM (M^-1 s^-1)),[11],150000 M⁻¹ s⁻¹
same,Probe Cleavage (pM/s),[11],3830 pM/s
same,Probe Cleavage (pM/s),[12],456 pM/s
same,Probe Cleavage (pM/s),[13],13000 pM/s
same,Probe Cleavage (kcat/KM (M^-1 s^-1)),[14],150000 M⁻¹ s⁻¹
same,Probe Cleavage (pM/s),[14],7620 pM/s
same,Probe Cleavage (pM/s),[15],2070 pM/s
same,Probe Cleavage (pM/s),[16],13700 pM/s
same,Probe Cleavage (pM/s),[17],16200 pM/s
same,Probe Cleavage (pM/s),[18],581 pM/s
